Experimental data as given in patent US20200123547, “NUCLEIC ACID-BASED ASSEMBLY AND USES THEREOF” (Rheinische Friedrich-Wilhelms-Universität Bonn, published 2020).

Assays:
[1] = target: T1, cMet (HGFR) ectodomain, cMet-Fc (human, UniProt P08581 P08581:25-932); test: competition; filter retention vs 32P-trCLN3; ~50 nM cMet; 1x PBS pH 7.4, 2 mM MgCl2, tRNA, BSA, 37 C; settings: tags: Fc domain of human IgG1 fusion, R&D Systems; chain copies: 2; G4, micellar nanoconstruct above CMC 300-350 nM
Method: (§1) To determine the affinity, ˜25 fmol of radiolabeled aptamer was incubated with a cMet concentration of ˜50 nM together with varying concentrations (1 μM-25 μM) of unlabeled competitor for 30 min at 37° C. in 25 μL of buffer containing 0.1 mg/ml E.coli tRNA (Roche, Mannheim, Germany), 0.25 mg/ml BSA, 2 mM MgCl₂ in 1× PBS, pH 7.4. The aptamer-protein complexes were captured on a Protran nitrocellulose membrane (GE Healthcare) that was pre-incubated in 0.4 M KOH for 10 minutes, followed by washing with 1× PBS containing 2 mM MgCl₂, pH 7.4. After addition of the aptamer-protein solution, the filter was washed 4 times with lx PBS containing 2 mM MgCl₂ using vacuum filtration. Residual radioactivity due to cMet bound labeled aptamers was quantified using Fujifilm Fla-3000 Phosphorlmager and AIDA software. The curves were fitted with GraphPadPrism 3.02 plotting non-linear regression curve and the IC₅₀ values have been calculated assuming a competition for single binding site.
(§2) To test the influence of lipid tails on aptamer binding, a competitive filter-binding assay was carried out using the methodology above. Varying concentrations of unlabeled 5′-lipid functionalized aptamer 3 and its two-point mutant variant trCLN3.mut-L4 (see Example 2.3) competed with a constant amount of ³²P-radio-labeled native trCLN3 aptamer in binding to cMet.

[2] = target: T1, cMet (HGFR) ectodomain, cMet-Fc; test: filter; almost no binding in filter retention assay; settings: tags: Fc domain of human IgG1 fusion, R&D Systems; chain copies: 2
[3] = target: T1, cMet (HGFR) ectodomain, cMet-Fc; test: competition; no competition with 32P-trCLN3 within tested concentration range; settings: tags: Fc domain of human IgG1 fusion, R&D Systems; chain copies: 2
Method: as §1, §2

T1 sequence (P08581 25-932, one chain of several): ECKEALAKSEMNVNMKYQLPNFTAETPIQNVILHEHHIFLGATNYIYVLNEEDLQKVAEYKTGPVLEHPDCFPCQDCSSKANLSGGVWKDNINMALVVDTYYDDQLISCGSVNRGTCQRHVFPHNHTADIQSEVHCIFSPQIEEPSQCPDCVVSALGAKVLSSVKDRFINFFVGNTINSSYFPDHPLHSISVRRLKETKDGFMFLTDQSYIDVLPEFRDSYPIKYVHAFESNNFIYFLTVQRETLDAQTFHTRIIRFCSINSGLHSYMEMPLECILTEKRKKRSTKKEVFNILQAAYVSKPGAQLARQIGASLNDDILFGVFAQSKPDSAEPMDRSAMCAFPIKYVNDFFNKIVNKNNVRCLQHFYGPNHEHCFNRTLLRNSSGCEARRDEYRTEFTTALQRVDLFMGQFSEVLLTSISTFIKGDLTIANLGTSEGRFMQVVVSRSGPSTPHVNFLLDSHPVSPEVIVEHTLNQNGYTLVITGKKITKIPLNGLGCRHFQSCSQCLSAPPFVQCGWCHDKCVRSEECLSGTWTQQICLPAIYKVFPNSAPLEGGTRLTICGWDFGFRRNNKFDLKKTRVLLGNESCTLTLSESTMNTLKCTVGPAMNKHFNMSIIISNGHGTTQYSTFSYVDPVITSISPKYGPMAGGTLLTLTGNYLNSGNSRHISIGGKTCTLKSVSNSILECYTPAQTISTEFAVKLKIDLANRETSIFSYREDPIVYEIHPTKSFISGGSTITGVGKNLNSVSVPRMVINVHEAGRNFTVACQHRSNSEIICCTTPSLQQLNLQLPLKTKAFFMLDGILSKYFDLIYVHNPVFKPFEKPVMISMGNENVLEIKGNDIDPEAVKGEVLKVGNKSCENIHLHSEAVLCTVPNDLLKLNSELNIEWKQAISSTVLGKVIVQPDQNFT

## TGGATGGTAGCTCGGTCGGGGTGGGTGGGTTGGCAAGTCT (structured_DNA, four 5-(1-dodecynyl)-2'-deoxyuridine (C12 lipid) residues at 5' end) [trCLN3-L4]
[1]
  IC50: 43 nM

## TGGATGATAGCTCGGTCGGGGTGGATGGGTTGGCAAGTCT (ssDNA) [trCLN3.mut]
[2]
  binding result: no binding

## TGGATGATAGCTCGGTCGGGGTGGATGGGTTGGCAAGTCT (ssDNA, four 5-(1-dodecynyl)-2'-deoxyuridine (C12 lipid) residues at 5' end) [trCLN3.mut-L4]
[3]
  binding result: no binding
